Source: patent publication US20080233097A1, “Phosphorylation Site Of Mitogen-Activated Protein Kinases, Modified Proteins And Applications” (UNIVERSIDAD AUTONOMA DE MADRID, priority 2005, published 2008)
Residue numbers refer to the chain shown, from its start. Names and notes keep the numbering of the source. Each block holds one molecule with its values, some of them ahead of it.

Columns and labels:
[1] = system: β2-adrenergic (β2-AR) receptor; test: isoproterenol stimulation of HEK 293 cells with β2-AR, Flag-p38α and GRK2 (co-immunoprecipitation, anti-phospho-p38); assay type: cell-based, human
Protocol: 48 hours after the transfection and after a 2 hour serum starvation, the cells were stimulated with the adrenergic agonist isoproterenol (ISO, 10 μM) for 5 or 10 minutes or they were not stimulated (0 min ISO). Likewise, cells without overexpressed β2-AR receptor were stimulated with 0.5 M NaCl for 15 minutes. The cells were solubilized in a buffer suitable for immunoprecipitation with the M2 anti-Flag antibody bound to agarose and after taking aliquots of these lysates (10%) for overexpression control (lysate panels) the immune complexes were incubated overnight at 4° C. The immunoprecipitated proteins (Ip anti-Flag) were resuspended in an electrophoresis breaking buffer and the bound proteins were resolved in a 10% SDS-polyacrylamide gel. […] The negative immunoprecipitation controls (Cneg) in the absence of Flag-p38α and of stimulation with 10 μM isoproterenol are also included in the figure. […] As described in A, non-specific immunoprecipitation controls (Cneg) of the M2 anti-Flag-agarose antibody were carried out.
In the GRK2 and Flag-p38α association experiments, a 1:1:1 ratio of GRK2 (or GRK2-K220R), Flag-p38α, and β2-adrenergic receptor was used (generally 1 μg of each per p60).
The stimulation of HEK293 cells with 10 μM isoproterenol (Sigma) was carried out at 37° C. in culture medium without serum. […]

3T3-L1 cells = test: adipocyte differentiation of 3T3-L1 (Oil Red staining, adipocyte count); assay type: cell-based; conditions: 3T3L1 lines stably transfected, day 15
Excerpt: 3T3L1 lines stably transfected with pCDNA3-GRK2 and pCDNA3-GRK2K220R were made. GRK2 (anti-GRK2) expression controls obtained in cell lines, compared to 3T3L1 levels, are included. The cells were subjected to a standard differentiation treatment and on day 15 of the latter, the cells were fixed with formalin and stained with Oil Red, a lipophilic coloring which binds to the fats accumulated by the adipocytes. The cells with adipocytic phenotype (in red) were counted under microscope in a total of 25 fields. Representative photographs of two independent experiments are shown in duplicate. A photo of the 3T3L1 cells, free of stimulation with insulin during the differentiation process (control), is also included. The graph reflects the adipocyte count (±SEM) in these experiments.
The cell culture was carried out with 10% DMEM medium of NCS serum. However, the entire differentiation process which is described below must be performed in depleted AXC serum (ion exchange resin) by means of successive adsorptions of fetal calf serum on an anion exchange resin and on active carbon. AXC serum was provided by the kitchen service of the Instituto of Investigaciones Biomédicas (Biomedical Research Institute). The cells are grown until their confluence and are plated (5×10^5 in P-100) in DMEM-10% AXC medium, supplemented with 4 μM of biotin (Sigma). The following day, the medium is replaced with fresh medium. The cells are grown another three days, until confluence is reached again, that day is called day “0”. On day 0 of differentiation, the cells are cultured in a medium containing: 0.5 μM dexamethasone (Sigma), 0.5 mM 3-isobutyl-1-methylxanthine (IMBX, of Sigma) and 1 μM insulin (Sigma) and in which they will remain for another three days. […] From day 6 to day 15, the adipogenesis was analyzed by staining with Oil Red, a red coloring of lipophilic constitution which binds to the drops of fat accumulated by the adipocytes in their cytoplasm. […] The cells are counted in a total of 25 fields per each experimental plate.

GRK2 = biological target: T1, GRK2 (Bos taurus, UniProt P21146); test: phosphorylation of p38 mutants and truncated proteins by GRK2 in vitro; assay type: biochemical; conditions: GST fusion proteins, 30 minutes at 30° C.
T1 construct: made in house; host or cells: Sf9 cells (baculovirus)
T1 sequence (P21146 1-689): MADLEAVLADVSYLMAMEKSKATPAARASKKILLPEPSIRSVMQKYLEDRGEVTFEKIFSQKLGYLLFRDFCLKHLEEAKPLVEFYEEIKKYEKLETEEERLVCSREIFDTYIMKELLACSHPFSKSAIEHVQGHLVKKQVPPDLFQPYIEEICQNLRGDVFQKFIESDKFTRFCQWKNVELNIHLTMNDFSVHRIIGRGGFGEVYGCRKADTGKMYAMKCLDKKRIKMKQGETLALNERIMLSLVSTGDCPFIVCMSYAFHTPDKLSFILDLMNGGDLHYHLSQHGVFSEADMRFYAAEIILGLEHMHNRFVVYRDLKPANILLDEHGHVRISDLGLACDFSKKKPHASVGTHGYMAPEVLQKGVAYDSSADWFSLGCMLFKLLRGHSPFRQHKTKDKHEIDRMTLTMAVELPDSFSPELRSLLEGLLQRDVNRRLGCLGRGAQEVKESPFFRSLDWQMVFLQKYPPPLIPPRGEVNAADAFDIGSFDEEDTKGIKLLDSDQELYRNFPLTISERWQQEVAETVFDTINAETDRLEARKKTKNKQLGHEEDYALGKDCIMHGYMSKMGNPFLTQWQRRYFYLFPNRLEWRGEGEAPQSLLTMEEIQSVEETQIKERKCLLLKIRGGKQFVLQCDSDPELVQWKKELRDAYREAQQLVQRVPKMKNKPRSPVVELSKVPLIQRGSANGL
Protocol: FIG. 6A: Proteins fused to GST (black rectangle in the protein schemes) were purified from bacteria transformed with the plasmids pGEX2T-p38α, pGEX4T-Mxi2 and pGEX4T-Mxi2Δ17: p38α, Mxi2 and Mxi2Δ17. The […] isoforms used as C-terminal truncated mutants for trying to limit the GRK2 phosphorylation site. […] Heparin (150 nM) was included as a specific GRK2 inhibitor. The reactions were stopped by adding SDS breaking buffer. The samples were resolved in 8% SDS-PAGE. For the purpose of assuring the inclusion of identical amounts of protein, they were first visualized in the gel by Coomassie Brilliant Blue (CBB) staining. Then the gel was dried and the radioactivity incorporated to the proteins (^32P) was detected. FIG. 6B: The truncated GST-280-360p38 protein, corresponding to the last 80 p38α amino acids, was generated by means of the Invitrogen Gateway system. Phosphorylation assays were carried out with Mxi2Δ17 as a p38 N-terminal, 280-360 p38 as C-terminal and with whole p38α in the same conditions as described in section A. The phosphorylation was detected by autoradiography (^32P) and controls of the amount of protein used in the assays were carried out concomitantly by Western blot with the anti-GST antibody. The presence of the GST-280-360p38 protein, which is not phosphorylated, is clearly observed. STD, mobility of standard molecular weight proteins.
FIG. 9A: p38T123A and p38T123D proteins, fused to GST, were made by directed mutagenesis in the prokaryotic expression plasmids pGEX2T. The ability of the recombinant GST-p38T123A and GST-p38T123D proteins to be GRK2 substrates in comparison to the wild GST-p38WT protein and at the final concentrations indicated in the Figure was assayed. The upper panels represent the obtained phosphorylation (32 P) and the lower panels show, by anti-p38N WB, the amount of recombinant protein used in the assays. […]
Heparin (150 nM) was included as a specific GRK2 inhibitor. […] Subsequently, the gel was dried and the radioactivity incorporated to the proteins (^32P) was detected. […]

GST-MEF2A = test: phosphorylation of GST-MEF2A by p38; assay type: biochemical
Protocol: FIG. 12A: In vitro phosphorylations are carried out with the fusion proteins indicated in the Figure, in the presence (+) or absence (−) of recombinant MKK6CAM(40 ng) and 2 μg of GST-MEF2A. The assay was left to take place for 30 minutes. The proteins were separated in 8% SDS-PAGE, stained with CBB and the incorporated radioactivity (^32P) was detected. Panels of a representative experiment of the three assays carried out independently are provided. FIG. 12B: The baseline activity of the three p38 fusion proteins in the absence of the MKK6CAM activator was evaluated in the previously described conditions. A representative autoradiography after a long exposure is shown.
(§1) The ATF2 and MEF2A forms bound to GST were used to test the catalytic activity of GST-p38. In most cases, 2 μg of GST-ATF2 or GST-MEF2A, of own production, were used. The phosphorylation conditions are the same as set forth in the foregoing cases. Nevertheless, in other occasions, relevantly pointed out in the Figures, 0.2 μg of substrate were used and the phosphorylation reaction was allowed to take pace for 15 minutes only.

GST-ATF2 = test: phosphorylation of GST-ATF2 by MKK6CAM-activated p38; assay type: biochemical; conditions: with MKK6CAM, 2 μg GST-ATF2
Protocol: (§2) The reactions were carried out at 30° C. for 30 minutes and the proteins were separated in 8% SDS-PAGE gels. The amount of p38 in each point was visualized by Coomassie Blue staining. Then the radioactivity in each p38 isoform was determined. […] FIG. 11B: In these same assays, the ability of MKK6CAM-activated GST-p38WT, GST-p38T123A and GST-p38T123D to phosphorylate 2 μg of GST-ATF2 is evaluated. The representative autoradiography (^32P) of the total GST-ATF2 control (Coomassie Blue) is attached.
as §1

MKK6CAM = test: p38 phosphorylation by MKK6CAM in vitro; assay type: biochemical; conditions: 150 nM fusion protein, 40 ng MKK6CAM
Protocol: as §2
As in the previous cases, the reactions were left to take place at 30° C. for 30 minutes and the proteins were resolved in 8% SDS-PAGE gels. With the purpose of assuring the inclusion of identical amounts of protein, they were visualized in the gel by Coomassie Blue staining. Subsequently, the radioactivity incorporated in each p38 isoform was determined.

Molecule: CC(C)NCC(O)c1ccc(O)c(O)c1 (stereo not shown) [isoproterenol]
- p38 activation (anti-phospho-p38) ([1]; 10 μM): not very strong
- association between GRK2 and p38 (co-immunoprecipitation) ([1]; 10 μM, 0, 5 or 10 minutes): maximum association is obtained five minutes after exposure

B1: purified MKK6 (recombinant MKK6CAM, Upstate Biotech) (protein)
chain: MSQSKGKKRNPGLKIPKEAFEQPQTSSTPPRDLDSKACISIGNQNFEVKADDLEPIMELGRGAYGVVEKMRHVPSGQIMAVKRIRATVNSQEQKRLLMDLDISMRTVDCPFTVTFYGALFREGDVWICMELMDTSLDKFYKQVIDKGQTIPEDILGKIAVSIVKALEHLHSKLSVIHRDVKPSNVLINALGQVKMCDFGISGYLVDEVAKEIDAGCKPYMAPERINPELNQKGYSVKSDIWSLGITMIELAILRFPYDSWGTPFQQLKQVVEEPSPQLPADKFSAEFVDFTSQCLKKNSKERPTYPELMQHPFFTLHESKGTDVASFVKLILGD
- phosphorylation by MKK6CAM (32P incorporation) (GST-p38T123D): GST-p38T123D is a much worse MKK6CAM substrate than the other two p38

B2: K220R: catalytically inactive GRK2-K220R mutant (protein)
chain: T1 sequence (P21146 1-689) with K220R
- acquisition of the adipocytic morphology mediated by insulin (3T3-L1 cells): stimulates it

- ability to be a GRK2 substrate (32P incorporation) (GRK2): no trace whatsoever of phosphorylation
B3: GST-280-360 p38α: truncated protein corresponding to the last 80 amino acids of p38α, fused to GST (protein)
chain: AVDLLEKMLVLDSDKRITAAQALAHAYFAQYHDPDDEPVADPYDQSFESRDLLIDEWKSLTYDEVISFVPPPLDQEEMES
modifications: left off: a dimerising Fc or GST
notes: truncated protein corresponding to the last 80 amino acids of p38α, fused to GST

B4: p38T123A: p38α mutant form that cannot be phosphorylated by GRK2 (protein, UniProt P47811 2-360, looked up, variant T123A)
Mitogen-activated protein …: SQERPTFYRQELNKTIWEVPERYQNLSPVGSGAYGSVCAAFDTKTGHRVAVKKLSRPFQSIIHAKRTYRELRLLKHMKHENVIGLLDVFTPARSLEEFNDVYLVTHLMGADLNNIVKCQKLADDHVQFLIYQILRGLKYIHSADIIHRDLKPSNLAVNEDCELKILDFGLARHTDDEMTGYVATRWYRAPEIMLNWMHYNQTVDIWSVGCIMAELLTGRTLFPGTDHIDQLKLILRLVGTPGAELLKKISSESARNYIQSLAQMPKMNFANVFIGANPLAVDLLEKMLVLDSDKRITAAQALAHAYFAQYHDPDDEPVADPYDQSFESRDLLIDEWKSLTYDEVISFVPPPLDQEEMES
modifications: GST fusion in some forms
notes: p38α mutant form that cannot be phosphorylated by GRK2
- baseline catalytic activity on MEF2A (GST-MEF2A; absence of the activating kinase MKK6, long exposure): middle ground between p38αWT and p38Tα123D
- catalytic activity on MEF2A (GST-MEF2A; with MKK6CAM, 2 μg GST-MEF2A): conserves the ability to phosphorylate this substrate
- ability to be a GRK2 substrate (32P incorporation) (GRK2): none of the two mutant is a GRK2 substrate
- catalytic activity on GST-ATF2 (GST-ATF2): phosphorylate it analogously
- phosphorylation by MKK6CAM (32P) (MKK6CAM): correctly phosphorylated by MKK6CAM
